What all share (assay type): biochemical, Escherichia coli
Substrate in data set [1]: N[C@@H](CO)C(=O)O
Briefly: Michaelis-Menten kinetics of purified enzyme, DTNB assay (KM).

Substrate in data set [2]: CC(=O)SCCNC(=O)CCNC(=O)[C@H](O)C(C)(C)COP(=O)(O)OP(=O)(O)OC[C@H]1O[C@@H](n2cnc3c(N)ncnc32)[C@H](O)[C@@H]1OP(=O)(O)O
Briefly: Michaelis-Menten kinetics of purified enzyme, DTNB assay of released CoA (KM).

Substrate in data set [3]: O=CO
Briefly: Michaelis-Menten kinetics of purified enzyme, LDH-coupled NADH assay (KM). The note with it: glycyl radical (activated by PFL-AE).

Substrate in data set [4]: CCC(=O)SCCNC(=O)CCNC(=O)[C@H](O)C(C)(C)COP(=O)(O)OP(=O)(O)OC[C@H]1O[C@@H](n2cnc3c(N)ncnc32)[C@H](O)[C@@H]1OP(=O)(O)O
Described as above. To be noted: glycyl radical (activated by PFL-AE).

Substrate in data set [5]: N[C@@H](CCOC(=O)CCC(=O)O)C(=O)O
Briefly: purified protein. The note with it: pyridoxal-5'-phosphate.

Substrate in data set [6]: CCC(=O)SCCNC(=O)CCNC(=O)[C@H](O)C(C)(C)COP(=O)(O)OP(=O)(O)OC[C@H]1O[C@@H](n2cnc3c(N)ncnc32)[C@H](O)[C@@H]1OP(=O)(O)O
Briefly: purified protein. To be noted: glycyl radical (activated by PFL-AE).

B1: serine acetyltransferase (CysE) (Escherichia coli K-12) (protein)
chain: MSCEELEIVWNNIKAEARTLADCEPMLASFYHATLLKHENLGSALSYMLANKLSSPIMPAIAIREVVEEAYAADPEMIASAACDIQAVRTRDPAVDKYSTPLLYLKGFHALQAYRIGHWLWNQGRRALAIFLQNQVSVTFQVDIHPAAKIGRGIMLDHATGIVVGETAVIENDVSILQSVTLGGTGKSGGDRHPKIREGVMIGAGAKILGNIEVGRGAKIGAGSVVLQPVPPHTTAAGVPARIVGKPDSDKPSMDMDQHFNGINHTFEYGDGI
The term Km denotes the substrate concentration at which the rate is half of its maximum. As to B1, the Km in data set [1] is 800 ± 300 µM; in data set [2] it was 600 ± 200 µM.

B2: TdcE (2-ketobutyrate formate-lyase) (Escherichia coli K-12) (protein)
chain: MKVDIDTSDKLYADAWLGFKGTDWKNEINVRDFIQHNYTPYEGDESFLAEATPATTELWEKVMEGIRIENATHAPVDFDTNIATTITAHDAGYINQPLEKIVGLQTDAPLKRALHPFGGINMIKSSFHAYGREMDSEFEYLFTDLRKTHNQGVFDVYSPDMLRCRKSGVLTGLPDGYGRGRIIGDYRRVALYGISYLVRERELQFADLQSRLEKGEDLEATIRLREELAEHRHALLQIQEMAAKYGFDISRPAQNAQEAVQWLYFAYLAAVKSQNGGAMSLGRTASFLDIYIERDFKAGVLNEQQAQELIDHFIMKIRMVRFLRTPEFDSLFSGDPIWATEVIGGMGLDGRTLVTKNSFRYLHTLHTMGPAPEPNLTILWSEELPIAFKKYAAQVSIVTSSLQYENDDLMRTDFNSDDYAIACCVSPMVIGKQMQFFGARANLAKTLLYAINGGVDEKLKIQVGPKTAPLMDDVLDYDKVMDSLDHFMDWLAVQYISALNIIHYMHDKYSYEASLMALHDRDVYRTMACGIAGLSVATDSLSAIKYARVKPIRDENGLAVDFEIDGEYPQYGNNDERVDSIACDLVERFMKKIKALPTYRNAVPTQSILTITSNVVYGQKTGNTPDGRRAGTPFAPGANPMHGRDRKGAVASLTSVAKLPFTYAKDGISYTFSIVPAALGKEDPVRKTNLVGLLDGYFHHEADVEGGQHLNVNVMNREMLLDAIEHPEKYPNLTIRVSGYAVRFNALTREQQQDVISRTFTQAL
The Vmax is the top rate of the reaction or transport when substrate is in excess. As a reminder, the kcat is the number of substrate molecules converted per active site and unit of time at saturation. Take B2: in data set [3], the Km came out at 20000 ± 3000 µM, the Vmax amounted to 1.8 µmol/min/mg and the kcat amounted to 2.7 ± 0.1 s⁻¹. For the same protein, in data set [4], the Km is reported as 520 ± 81 µM, the Vmax was determined as 2.1 µmol/min/mg and the turnover number (kcat) amounted to 3.2 ± 0.2 s⁻¹.

B3: cystathionine γ-synthase (MetB) (Escherichia coli K-12) (protein)
chain: MTRKQATIAVRSGLNDDEQYGCVVPPIHLSSTYNFTGFNEPRAHDYSRRGNPTRDVVQRALAELEGGAGAVLTNTGMSAIHLVTTVFLKPGDLLVAPHDCYGGSYRLFDSLAKRGCYRVLFVDQGDEQALRAALAEKPKLVLVESPSNPLLRVVDIAKICHLAREVGAVSVVDNTFLSPALQNPLALGADLVLHSCTKYLNGHSDVVAGVVIAKDPDVVTELAWWANNIGVTGGAFDSYLLLRGLRTLVPRMELAQRNAQAIVKYLQTQPLVKKLYHPSLPENQGHEIAARQQKGFGAMLSFELDGDEQTLRRFLGGLSLFTLAESLGGVESLISHAATMTHAGMAPEARAAAGISETLLRISTGIEDGEDLIADLENGFRAANKG
As to B3, the Km in data set [5] was found to be 600 ± 80 µM.

B4: pyruvate formate-lyase (PFL, PflB) (Escherichia coli K-12) (protein)
chain: SELNEKLATAWEGFTKGDWQNEVNVRDFIQKNYTPYEGDESFLAGATEATTTLWDKVMEGVKLENRTHAPVDFDTAVASTITSHDAGYINKQLEKIVGLQTEAPLKRALIPFGGIKMIEGSCKAYNRELDPMIKKIFTEYRKTHNQGVFDVYTPDILRCRKSGVLTGLPDAYGRGRIIGDYRRVALYGIDYLMKDKLAQFTSLQADLENGVNLEQTIRLREEIAEQHRALGQMKEMAAKYGYDISGPATNAQEAIQWTYFGYLAAVKSQNGAAMSFGRTSTFLDVYIERDLKAGKITEQEAQEMVDHLVMKLRMVRFLRTPEYDELFSGDPIWATESIGGMGLDGRTLVTKNSFRFLNTLYTMGPSPEPNMTILWSEKLPLNFKKFAAKVSIDTSSLQYENDDLMRPDFNNDDYAIACCVSPMIVGKQMQFFGARANLAKTMLYAINGGVDEKLKMQVGPKSEPIKGDVLNYDEVMERMDHFMDWLAKQYITALNIIHYMHDKYSYEASLMALHDRDVIRTMACGIAGLSVAADSLSAIKYAKVKPIRDEDGLAIDFEIEGEYPQFGNNDPRVDDLAVDLVERFMKKIQKLHTYRDAIPTQSVLTITSNVVYGKKTGNTPDGRRAGAPFGPGANPMHGRDQKGAVASLTSVAKLPFAYAKDGISYTFSIVPNALGKDDEVRKTNLAGLMDGYFHHEASIEGGQHLNVNVMNREMLLDAMENPEKYPQLTIRVSGYAVRFNSLTKEQQQDVITRTFTQSM
On to B4, for which, in data set [3], the Km amounted to 69000 ± 11000 µM, the maximum rate (Vmax) was found to be 0.59 µmol/min/mg and the catalytic constant (kcat) came to 0.9 ± 0.05 s⁻¹. In addition, in data set [6], the Km was found to be 830 ± 580 µM, the maximal velocity (Vmax) stood at 1.1 µmol/min/mg and the kcat amounted to 1.7 ± 0.9 s⁻¹.

The values are drawn from PMC7476758, “Underground isoleucine biosynthesis pathways in E. coli” (eLife, 2020).
